Laboratory results taken from publication PMC5725882.

Tests used:
[1] = target: full-length wild-type p97 (^FLp97^wt) (UniProt P55072); assay: GST pull-down; conditions: 2 mM AMP-PNP; n=3; parent: est. 1.0; read off a plot
[2] = target: Np97 (N domain alone of wild-type p97) (UniProt P55072); assay: ITC; VIMPx titrated into p97; iTC200, 25 C; 50 mM Tris pH 8.0, 150 mM NaCl, 2 mM MgCl2, 5% glycerol; no nucleotide added; one-site model
[3] = target: VIMP of canine pancreas microsomes (dog (endogenous in canine pancreas microsomes)); assay: co-IP; immunodepletion: canine pancreas microsomes solubilized in 1% deoxyBigCHAP, supernatant incubated three times with Protein A beads containing anti-VIMP antibodies; unbound fractions immunoblotted

full-length wild-type p97 (^FLp97^wt), sequence (P55072 whole entry): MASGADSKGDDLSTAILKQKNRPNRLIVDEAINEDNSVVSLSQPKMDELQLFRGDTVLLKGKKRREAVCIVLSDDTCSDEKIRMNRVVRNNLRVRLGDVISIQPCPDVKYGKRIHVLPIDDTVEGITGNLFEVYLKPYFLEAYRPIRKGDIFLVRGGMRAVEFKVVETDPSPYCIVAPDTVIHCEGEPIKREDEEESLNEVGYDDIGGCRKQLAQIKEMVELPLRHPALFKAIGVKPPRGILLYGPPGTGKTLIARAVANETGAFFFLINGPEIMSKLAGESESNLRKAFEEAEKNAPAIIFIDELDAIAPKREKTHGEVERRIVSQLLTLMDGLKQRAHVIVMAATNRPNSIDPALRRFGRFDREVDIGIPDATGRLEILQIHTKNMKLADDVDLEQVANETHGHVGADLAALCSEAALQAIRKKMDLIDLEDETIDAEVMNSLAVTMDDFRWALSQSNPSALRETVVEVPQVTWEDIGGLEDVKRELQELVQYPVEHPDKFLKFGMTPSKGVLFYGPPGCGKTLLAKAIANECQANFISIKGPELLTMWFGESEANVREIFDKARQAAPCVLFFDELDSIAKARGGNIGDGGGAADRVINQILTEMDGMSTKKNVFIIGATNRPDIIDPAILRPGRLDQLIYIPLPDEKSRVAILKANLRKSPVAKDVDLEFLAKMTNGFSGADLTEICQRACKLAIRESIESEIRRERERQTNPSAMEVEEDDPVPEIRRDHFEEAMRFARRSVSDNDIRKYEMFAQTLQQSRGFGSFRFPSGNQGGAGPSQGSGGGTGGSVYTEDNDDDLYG
Np97 (N domain alone of wild-type p97), sequence (P55072 whole entry): as above

Substance	ratio to parent [1]	also measured
GST-tagged VIMP-N10 R78A	0.24	
GST-tagged VIMP-N10 L93A	0.17	
GST-tagged VIMP-N10 K88A	0.14	
GST-tagged VIMP-N10 R86A	0.07	
GST-tagged VIMP-N10 K77A	0.8	
GST-tagged VIMP-N10 V97A	0.04	
GST-tagged VIMP-N10 Q79A	0.87	
VIMPx (VCP-interacting membrane protein, residues 49-122) (from UniProt Q9BQE4 49-122) (domain or fragment)		Kd [2]: 6.58 µM; stoichiometry N [2]: 1.27
GST-tagged VIMP-N10 L82A	0.14	
GST-tagged VIMP-N10 M89A	0.24	
ER membrane-associated p97 of canine pancreas microsomes (natural protein)		percent of microsome-associated p97 lost by co-depletion with VIMP [3]: < 90%
